# Test results from patent US9266923B2, “Compositions and methods for treatment of thrombosis and for prolonging survival of stored platelets” (priority 2010, dated 2016).
# Assays:
# [1] = target: T1, mouse platelet GPIbα (Mus musculus, UniProt O35930); experiment: In vivo activity in wild-type mice
# T1 construct: endogenous in cells; host or cells: platelets of wild-type mice (in vivo)
# T1 sequence (O35930 17-734): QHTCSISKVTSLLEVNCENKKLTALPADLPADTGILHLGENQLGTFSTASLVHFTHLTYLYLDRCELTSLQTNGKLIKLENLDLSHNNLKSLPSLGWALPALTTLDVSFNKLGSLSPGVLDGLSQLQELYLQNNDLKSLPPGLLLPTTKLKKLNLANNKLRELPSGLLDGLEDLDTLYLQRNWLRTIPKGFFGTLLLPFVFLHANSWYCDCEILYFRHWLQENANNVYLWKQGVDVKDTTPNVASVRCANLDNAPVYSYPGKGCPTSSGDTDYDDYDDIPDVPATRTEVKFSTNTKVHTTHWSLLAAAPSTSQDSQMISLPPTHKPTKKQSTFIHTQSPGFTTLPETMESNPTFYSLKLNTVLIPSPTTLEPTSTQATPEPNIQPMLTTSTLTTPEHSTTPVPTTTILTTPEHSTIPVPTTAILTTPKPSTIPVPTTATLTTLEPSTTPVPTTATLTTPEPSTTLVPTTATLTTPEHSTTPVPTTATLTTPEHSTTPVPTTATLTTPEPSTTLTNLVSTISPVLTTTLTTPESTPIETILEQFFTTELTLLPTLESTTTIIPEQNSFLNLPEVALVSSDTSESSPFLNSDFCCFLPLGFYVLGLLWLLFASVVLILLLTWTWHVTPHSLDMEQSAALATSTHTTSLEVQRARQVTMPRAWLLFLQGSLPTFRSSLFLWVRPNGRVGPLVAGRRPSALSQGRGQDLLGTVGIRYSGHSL
# T1 sequence (P56400 27-206 partner): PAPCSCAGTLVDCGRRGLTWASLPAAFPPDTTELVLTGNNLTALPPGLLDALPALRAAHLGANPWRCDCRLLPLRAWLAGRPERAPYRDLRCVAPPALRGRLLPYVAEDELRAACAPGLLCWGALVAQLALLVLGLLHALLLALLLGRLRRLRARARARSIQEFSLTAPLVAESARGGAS
# T1 sequence (O88186 17-177 partner): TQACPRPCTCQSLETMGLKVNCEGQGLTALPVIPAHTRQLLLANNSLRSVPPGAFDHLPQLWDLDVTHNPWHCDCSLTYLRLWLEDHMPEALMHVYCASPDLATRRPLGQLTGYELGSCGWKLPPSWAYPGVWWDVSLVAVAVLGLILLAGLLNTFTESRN
# Source text: (§1) CCP-014 extended tail bleeding time, as measured in Ware et al., Id.
# [2] = target: T2, human GPIbα (Homo sapiens, UniProt P07359); experiment: In vivo anti-thrombotic activity, tail bleeding time in transgenic mice expressing human GPIbα; set-up: species or system transgenic mouse
# T2 construct: mice expressing human GPIbα; expressed in transfected cells; host or cells: platelets of transgenic mice (Ware et al., PNAS 97:2803-08 (2000))
# T2 sequence (P07359 17-652, one chain of several): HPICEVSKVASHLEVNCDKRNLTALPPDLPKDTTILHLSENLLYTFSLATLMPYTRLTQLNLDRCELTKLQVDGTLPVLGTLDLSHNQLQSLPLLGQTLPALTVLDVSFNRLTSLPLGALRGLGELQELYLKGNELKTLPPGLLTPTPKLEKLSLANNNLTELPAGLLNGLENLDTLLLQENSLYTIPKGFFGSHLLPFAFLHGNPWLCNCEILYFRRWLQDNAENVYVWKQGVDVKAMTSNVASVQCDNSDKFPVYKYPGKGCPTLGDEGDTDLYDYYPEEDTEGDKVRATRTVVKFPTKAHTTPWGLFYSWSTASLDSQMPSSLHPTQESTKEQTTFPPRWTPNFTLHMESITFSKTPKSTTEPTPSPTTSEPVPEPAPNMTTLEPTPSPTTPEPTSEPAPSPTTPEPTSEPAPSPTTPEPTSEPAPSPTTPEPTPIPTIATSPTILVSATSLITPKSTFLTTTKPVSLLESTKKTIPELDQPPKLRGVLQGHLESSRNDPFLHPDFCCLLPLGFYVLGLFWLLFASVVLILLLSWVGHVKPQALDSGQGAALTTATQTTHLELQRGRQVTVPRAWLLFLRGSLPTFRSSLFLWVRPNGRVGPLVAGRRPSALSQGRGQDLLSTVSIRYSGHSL
# Source text: as §1
substance,measurement,setting,value
Ac-A C T E R M A L H N L C G G-NH2 (SEQ ID NO: 1) or Ac-A C T E R M A L H N L C G G K-NH2 (SEQ ID NO: 2) (Ac-ACTERMALHNLCGGK-NH2; cysteine pairing not given here) [CCP-014],activity in vivo,[1],not active
same,tail bleeding time,"[2]; mice expressing human GPIbα, measured as in Ware et al.",extended
same,activity in vivo,[2]; transgenic mice in which human GPIbα replaces the mouse platelet GPIbα,active
